Test results published in doi:10.1101/545921.

Target: AtGAPC1 C149S mutant (Arabidopsis thaliana)
Test: dynamic light scattering

stoichiometry N: 4
Substance: AtGAPC1 C149S mutant (enzyme)
